Results published in PMC13379313, “Clocked stepping of an artificial protein walker along a DNA track”.

T1: MetJ (UniProt P0A8U6 2-105, Q45K)
T1 sequence: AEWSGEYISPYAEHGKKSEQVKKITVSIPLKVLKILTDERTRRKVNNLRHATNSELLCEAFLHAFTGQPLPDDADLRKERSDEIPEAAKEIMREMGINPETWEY

B1: metJ single site (NR139 top/bottom) (dsDNA)
DNA 1: CCACGCCCTAAGGTATGCTAGTTTGAGACGTCTCAAAACAGGA
DNA 2: TCCTGTTTTGAGACGTCTCAAACTAGCAT
B2: trpR single site (NR206/NR207) (dsDNA)
DNA 1: CCACGCCCTAAGGTGAGCATAGTGGTACTCGCTAGCGAGTACCTCTGACTTC
DNA 2: GAAGTCAGAGGTACTCGCTAGCGAGTACCACTATGCTC

How the values were obtained:
MetJ = molecular target: T1, MetJ; assay: SPR; SAM; SPR: 1 mM SAM, 0.4 mM CoCl2 or 0.5 mM Trp, 100 ul/min, streptavidin CM5 chip; running buffer, pH and temperature not in material (DNA annealed in 25 mM HEPES pH 7.4, 200 mM KCl, 5 mM MgCl2); conditions: protein: recombinant; tags: 8xHis, TEV-cleaved; chain copies: 2; label: 3' biotin on anchor strand S4 (SPR); 5' overhang 14 nt of strand 1, annealed to biotin anchor S4 in SPR
TrpR = TrpR (UniProt P0A881 2-108); assay: SPR; Trp; SPR: 1 mM SAM, 0.4 mM CoCl2 or 0.5 mM Trp, 100 ul/min, streptavidin CM5 chip; running buffer, pH and temperature not in material (DNA annealed in 25 mM HEPES pH)

| Binder | Kd (MetJ) | Kd (TrpR) |
| --- | --- | --- |
| B1 | 4 ± 0.4 nM |  |
| B2 |  | 48 nM |
